Results: US20160031958A1 (OREGON HEALTH AND SCIENCE UNIVERSITY, published 2016)
Values belong to the binder of their own block, whether it stands above or below them.

What was measured:
[1] = biological target: T1, HA-REST E1009A/S1013A/S1024A/S1027A/S1030A (human, UniProt Q13127 1-1097); assay: GST pull-down on glutathione agarose from co-transfected HEK293T cells, Western blot
T1 construct: mature; Expressed in HEK293T cells and tested in cell extracts; also called E1009A/S1013/24/27/30A; REST degron mutant; not shown: HA tag
T1 sequence (looked up): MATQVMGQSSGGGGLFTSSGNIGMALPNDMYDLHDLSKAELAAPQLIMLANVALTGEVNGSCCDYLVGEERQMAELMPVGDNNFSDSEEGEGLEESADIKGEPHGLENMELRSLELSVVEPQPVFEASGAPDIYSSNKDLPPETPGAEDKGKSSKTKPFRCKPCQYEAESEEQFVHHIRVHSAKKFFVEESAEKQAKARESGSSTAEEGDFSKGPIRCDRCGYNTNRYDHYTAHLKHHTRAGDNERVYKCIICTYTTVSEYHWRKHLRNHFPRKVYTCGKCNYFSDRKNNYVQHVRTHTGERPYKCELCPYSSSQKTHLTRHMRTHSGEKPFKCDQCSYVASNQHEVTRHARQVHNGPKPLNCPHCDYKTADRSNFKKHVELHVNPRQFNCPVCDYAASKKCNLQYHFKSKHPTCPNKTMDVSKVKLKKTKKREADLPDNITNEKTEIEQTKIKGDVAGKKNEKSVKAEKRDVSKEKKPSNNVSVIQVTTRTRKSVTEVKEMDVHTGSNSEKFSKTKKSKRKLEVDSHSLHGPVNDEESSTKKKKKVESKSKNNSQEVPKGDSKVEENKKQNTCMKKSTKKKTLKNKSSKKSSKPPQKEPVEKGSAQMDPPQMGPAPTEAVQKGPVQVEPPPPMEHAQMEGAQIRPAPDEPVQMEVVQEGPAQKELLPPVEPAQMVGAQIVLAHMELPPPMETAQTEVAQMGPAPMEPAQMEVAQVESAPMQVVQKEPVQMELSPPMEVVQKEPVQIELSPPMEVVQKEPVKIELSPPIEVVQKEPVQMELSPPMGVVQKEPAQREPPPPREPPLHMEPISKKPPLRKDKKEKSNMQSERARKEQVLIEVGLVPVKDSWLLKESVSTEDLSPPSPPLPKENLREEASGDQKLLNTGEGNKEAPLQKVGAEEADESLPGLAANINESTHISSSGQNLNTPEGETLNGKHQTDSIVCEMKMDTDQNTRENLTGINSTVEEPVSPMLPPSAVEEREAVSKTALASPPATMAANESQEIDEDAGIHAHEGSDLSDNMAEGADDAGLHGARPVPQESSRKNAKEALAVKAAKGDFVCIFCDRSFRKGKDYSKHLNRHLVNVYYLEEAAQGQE
Method: HA-REST cDNAs were transfected into HEK293T cells along with GST-βTrCP, and FLAG-Dominant Negative Cull to stabilize REST. Cell extracts were collected on glutathione agarose and probed with anti-HA or anti-GST antibodies.
Whole cell lysates were prepared and immunoprecipitated following the procedures in Ballas N et al, 2001 supra and Nesti E et al, Mol Biol Cell 15, 4073-4088 (2004); incorporated by reference herein. Western blots were performed by standard procedures using antibodies described below and analyzed using anti IgG conjugated to infrared dyes (ThermoFisher) on an Odyssey® infrared fluorescence imager (LiCor). For detecting phosphorylated REST at S861/S864, cell extracts were prepared lacking phosphatase inhibitors. For phosphatase treatment, 75 μg of total protein was treated with 600 U lambda phosphatase (New England Biolabs) or with buffer alone at 30° C. for 1 h, according to the manufacturer's protocol. Thirty-five μg of treated protein were resolved by SDS-PAGE and Western blotted with the non-phospho-depleted anti REST phospho antibody (rabbit #101) at 1:500 in 3% BSA/1×TBS-0.5% Tween-20® overnight at 4° C., followed by anti-rabbit IgG-IR680 conjugated secondary antibody (Thermo Fisher) at 1:15000 in 5% milk/TBS-Tween for 1 hour at room temp. Infrared fluorescence was detected on the Odyssey® imager (LiCor) in the 700 nm channel. […]

[2] = biological target: T2, Pin1 (peptidyl-prolyl cis/trans isomerase), human (human, UniProt Q13526 1-163); assay: co-immunoprecipitation from transfected HEK293T cells, Western blot
T2 construct: also called Human Pin1
Method: FIG. 4A is an image of a Western blot of co-immunoprecipitation analysis showing Pin1 is present in REST (810-910) immunoprecipitates in a phospho-dependent manner. HEK293T cells were transfected with Pin1 cDNA and either WT or mutant (S861A/S864A) FLAG-REST (810-910) or FLAG-control (595-694) peptide cDNAs (FIG. 3). After 48 hours, the cells were extracted and immunoprecipitated. Western blots were probed with the indicated antibodies.
To confirm this, HEK cells were transfected with FLAG-Pin1 and cDNAs encoding the 100 amino acid peptides described above containing an S861/S864 or an S861A/S864A sites. Pin1 was present in immunocomplexes of unmutated REST (810-910) reporter peptides, but not phosphorylation-resistant mutant S861A/S864A peptides (FIG. 4A). […]
Whole cell lysates were prepared and immunoprecipitated following the procedures in Ballas N et al, 2001 supra and Nesti E et al, Mol Biol Cell 15, 4073-4088 (2004); incorporated by reference herein. Western blots were performed by standard procedures using antibodies described below and analyzed using anti IgG conjugated to infrared dyes (ThermoFisher) on an Odyssey® infrared fluorescence imager (LiCor). […]

HA-REST S861A/S864A = biological target: T3, HA-REST S861A/S864A (human, UniProt Q13127 1-1097); assay: FLAG immunoprecipitation from transfected HEK293T cells, Western blot
T3 construct: mature; Expressed in HEK293T cells and tested in cell extracts; also called mutant S861A/S864A REST; not shown: HA tag
T3 sequence (looked up): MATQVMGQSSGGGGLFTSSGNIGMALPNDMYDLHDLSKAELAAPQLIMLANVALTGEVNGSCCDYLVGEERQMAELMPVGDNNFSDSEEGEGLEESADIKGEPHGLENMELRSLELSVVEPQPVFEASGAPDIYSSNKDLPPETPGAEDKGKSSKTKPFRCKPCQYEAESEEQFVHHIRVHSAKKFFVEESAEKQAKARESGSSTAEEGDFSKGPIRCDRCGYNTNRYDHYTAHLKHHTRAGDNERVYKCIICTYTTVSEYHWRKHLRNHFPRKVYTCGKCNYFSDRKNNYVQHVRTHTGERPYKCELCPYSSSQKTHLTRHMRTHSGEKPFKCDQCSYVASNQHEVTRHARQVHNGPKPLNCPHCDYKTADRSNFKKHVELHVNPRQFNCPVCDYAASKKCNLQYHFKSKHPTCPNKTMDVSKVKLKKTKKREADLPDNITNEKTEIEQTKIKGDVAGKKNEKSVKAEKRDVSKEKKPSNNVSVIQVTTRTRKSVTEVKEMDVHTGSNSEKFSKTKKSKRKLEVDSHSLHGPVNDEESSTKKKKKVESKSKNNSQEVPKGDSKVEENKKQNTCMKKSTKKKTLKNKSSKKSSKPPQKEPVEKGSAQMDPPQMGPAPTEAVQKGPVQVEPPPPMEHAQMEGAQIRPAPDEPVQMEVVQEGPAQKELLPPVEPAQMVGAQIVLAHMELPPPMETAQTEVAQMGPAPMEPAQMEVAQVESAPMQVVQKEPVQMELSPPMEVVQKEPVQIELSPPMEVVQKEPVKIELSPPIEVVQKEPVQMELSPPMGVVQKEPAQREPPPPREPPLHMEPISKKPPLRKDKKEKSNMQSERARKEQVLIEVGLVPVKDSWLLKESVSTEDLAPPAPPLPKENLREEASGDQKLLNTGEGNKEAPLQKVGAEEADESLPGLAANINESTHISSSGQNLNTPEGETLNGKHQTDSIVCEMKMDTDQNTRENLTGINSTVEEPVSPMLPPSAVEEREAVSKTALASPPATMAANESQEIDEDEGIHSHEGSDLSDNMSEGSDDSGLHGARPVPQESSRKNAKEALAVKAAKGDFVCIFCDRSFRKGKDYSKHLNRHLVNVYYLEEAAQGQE
From the text: CTDSP1 was first identified as a nuclear phosphatase targeting the C-terminus of RNA polymerase II (R HR et al, BMB Rep 47, 192-196 (2014); Feng Y et al, Biochem Biophys Res Commun 397, 355-360 (2010); and Zhang Y et al, Mol Cell 24, 759-770 (2006); all of which are incorporated by reference herein). Subsequently it was implicated in REST repression of neuronal gene expression in P19 embryonal carcinoma cells that have the capacity to differentiate into neurons (Visvanathan J et al, Genes Dev 21, 744-749 (2007); incorporated by reference herein). […] REST was detected in FLAG-immunocomplexes only when the site was unmutated or double-substituted with glutamate, a phosphorylation-mimic.
Whole cell lysates were prepared and immunoprecipitated following the procedures in Ballas N et al, 2001 supra and Nesti E et al, Mol Biol Cell 15, 4073-4088 (2004); incorporated by reference herein. Western blots were performed by standard procedures using antibodies described below and analyzed using anti IgG conjugated to infrared dyes (ThermoFisher) on an Odyssey® infrared fluorescence imager (LiCor). […] Infrared fluorescence was detected on the Odyssey® imager (LiCor) in the 700 nm channel. […]

T2 sequence (Q13526 whole entry): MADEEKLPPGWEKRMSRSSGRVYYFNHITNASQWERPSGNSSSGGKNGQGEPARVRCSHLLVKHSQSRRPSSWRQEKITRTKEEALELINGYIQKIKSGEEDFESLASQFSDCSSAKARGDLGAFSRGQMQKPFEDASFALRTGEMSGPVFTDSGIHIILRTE

- binding result [1]: no binding
B1: GST-βTrCP (other, UniProt Q9Y297 1-605, looked up)
chain: MDPAEAVLQEKALKFMCSMPRSLWLGCSSLADSMPSLRCLYNPGTGALTAFQNSSEREDCNNGEPPRKIIPEKNSLRQTYNSCARLCLNQETVCLASTAMKTENCVAKTKLANGTSSMIVPKQRKLSASYEKEKELCVKYFEQWSESDQVEFVEHLISQMCHYQHGHINSYLKPMLQRDFITALPARGLDHIAENILSYLDAKSLCAAELVCKEWYRVTSDGMLWKKLIERMVRTDSLWRGLAERRGWGQYLFKNKPPDGNAPPNSFYRALYPKIIQDIETIESNWRCGRHSLQRIHCRSETSKGVYCLQYDDQKIVSGLRDNTIKIWDKNTLECKRILTGHTGSVLCLQYDERVIITGSSDSTVRVWDVNTGEMLNTLIHHCEAVLHLRFNNGMMVTCSKDRSIAVWDMASPTDITLRRVLVGHRAAVNVVDFDDKYIVSASGDRTIKVWNTSTCEFVRTLNGHKRGIACLQYRDRLVVSGSSDNTIRLWDIECGACLRVLEGHEELVRCIRFDNKRIVSGAYDGKIKVWDLVAALDPRAPAGTLCLRTLVEHSGRVFRLQFDEFQIVSSSHDDTILIWDFLNDPAAQAEPPRSPSRTYTYISR
notes: also called βTrCP-GST fusion; bTrCP; not shown: GST

- binding result [2]: no binding
B2: FLAG-REST (810-910)-GFP reporter peptide S861A/S864A (peptide)
chain: ISKKPPLRKDKKEKSNMQSERARKEQVLIEVGLVPVKDSWLLKESVSTEDLAPPAPPLPKENLREEASGDQKLLNTGEGNKEAPLQKVGAEEADESLPGLA
notes: also called mutant (S861A/S864A) FLAG-REST (810-910); phosphorylation-resistant mutant S861A/S864A peptide; not shown: N-terminal FLAG tag with linker; C-terminal eGFP tag (pEGFP-N1)

- binding result (HA-REST S861A/S864A): no binding
B3: FLAG-CTDSP1 (enzyme, not shown: small tags and cut ends)
chain: MDSSAVITQISKEEARGPLRGKGDQKSAASQKPRSRGILHSLFCCVCRDDGEALPAHSGAPLLVEENGAIPKQTPVQYLLPEAKAQDSDKICVVIDLDETLVHSSFKPVNNADFIIPVEIDGVVHQVYVLKRPHVDEFLQRMGELFECVLFTASLAKYADPVADLLDKWGAFRARLFRESCVFHRGNYVKDLSRLGRDLRRVLILDNSPASYVFHPDNAVPVASWFDNMSDTELHDLLPFFEQLSRVDDVYSVLRQPRPGS
notes: also called C-terminal domain small phosphatase
